Literature values as cited in paper PMC5382571.
pKd: −log10 of the molar value. Where two headings read alike, the source gives them in different places.

How the values were obtained:
[1] = target: PCNA (Homo sapiens) (UniProt P12004)
[2] = target: PCNA (Homo sapiens) (UniProt P12004); remark: listed apart in the source

Chain of UniProt P12004 (P12004 whole entry): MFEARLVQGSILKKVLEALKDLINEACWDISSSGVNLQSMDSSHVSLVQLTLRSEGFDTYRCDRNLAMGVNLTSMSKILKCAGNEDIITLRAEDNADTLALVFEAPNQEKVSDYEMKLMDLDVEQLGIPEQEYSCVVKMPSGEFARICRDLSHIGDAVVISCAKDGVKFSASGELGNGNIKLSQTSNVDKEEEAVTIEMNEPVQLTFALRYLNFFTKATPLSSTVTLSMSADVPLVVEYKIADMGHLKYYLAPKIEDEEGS

pKd [1] | pKd [2] | Substance
> 8.00 |  | DNA polymerase delta (from UniProt P28340)
 | 9.70 | RFC (from UniProt P35251)
